Experimental findings from article PMC7378325 are described below.

The target of the experiment is GFP-GABAB1b. Description: FRET or BRET; two-photon FLIM; GFP donor, t-dimer DsRed acceptor; transfected rat spinal neurons in culture, fixed; treated with baclofen (10^-9 to 10^-3 M) or GABA (10^-4 M), with exogenous fibulin-2 protein (25 or 50 nM), co-transfected fibulin-2 or anti-fibulin-2 siRNA; mean FRET efficiency ± …. Background: In BRET a luciferase serves as donor, and the signal depends on an acceptor being close.

B1: DsRed-GABAB2 (receptor)
chain: WTRGAPRPPPSSPPLSIMGLMPLTKEVAKGSIGRGVLPAVELAIEQIRNESLLRPYFLDLRLYDTECDNAKGLKAFYDAIKYGPNHLMVFGGVCPSVTSIIAESLQGWNLVQLSFAATTPVLADKKKYPYFFRTVPSDNAVNPAILKLLKHFRWRRVGTLTQDVQRFSEVRNDLTGVLYGEDIEISDTESFSNDPCTSVKKLKGNDVRIILGQFDQNMAAKVFCCAFEESMFGSKYQWIIPGWYEPAWWEQVHVEANSSRCLRRSLLAAMEGYIGVDFEPLSSKQIKTISGKTPQQFEREYNSKRSGVGPSKFHGYAYDGIWVIAKTLQRAMETLHASSRHQRIQDFNYTDHTLGKIILNAMNETNFFGVTGQVVFRNGERMGTIKFTQFQDSREVKVGEYNAVADTLEIINDTIRFQGSEPPKDKTIILEQLRKISLPLYSILSALTILGMIMASAFLFFNIKNRNQKLIKMSSPYMNNLIILGGMLSYASIFLFGLDGSFVSEKTFETLCTVRTWILTVGYTTAFGAMFAKTWRVHAIFKNVKMKKKIIKDQKLLVIVGGMLLIDLCILICWQAVDPLRRTVERYSMEPDPAGRDISIRPLLEHCENTHMTIWLGIVYAYKGLLMLFGCFLAWETRNVSIPALNDSKYIGMSVYNVGIMCIIGAAVSFLTRDQPNVQFCIVALVIIFCSTITLCLVFVPKLITLRTNPDAATQNRRFQFTQNQKKEDSKTSTSVTSVNQASTSRLEGLQSENHRLRMKITELDKDLEEVTMQLQDTPEKTTYIKQNHYQELNDILSLGNFTESTDGGKAILKNHLDQNPQLQWNTTEPSRTCKDPIEDINSPEHIQRRLSLQLPILHHAYLPSIGGVDASCVSPCVSPTASPRHRHVPPSFRVMVSGL
Molecule B1 came in with an FRET efficiency (baclofen 10^-6 M) of 51.2% and an FRET efficiency (baclofen 10^-6 M, fibulin-2 co-transfected) of 53%.
